Assay results published in publication PMC10765961 (2024).

Legend:
Test in all cases: microscale thermophoresis
[1] = target: EPHA2ΔC ECD (Homo sapiens, UniProt P29317)
[2] = target: EPHA2 (Homo sapiens, UniProt P29317)
[3] = target: T1, EPHA2ΔN intracellular region (Homo sapiens, UniProt P29317)
T1 chain: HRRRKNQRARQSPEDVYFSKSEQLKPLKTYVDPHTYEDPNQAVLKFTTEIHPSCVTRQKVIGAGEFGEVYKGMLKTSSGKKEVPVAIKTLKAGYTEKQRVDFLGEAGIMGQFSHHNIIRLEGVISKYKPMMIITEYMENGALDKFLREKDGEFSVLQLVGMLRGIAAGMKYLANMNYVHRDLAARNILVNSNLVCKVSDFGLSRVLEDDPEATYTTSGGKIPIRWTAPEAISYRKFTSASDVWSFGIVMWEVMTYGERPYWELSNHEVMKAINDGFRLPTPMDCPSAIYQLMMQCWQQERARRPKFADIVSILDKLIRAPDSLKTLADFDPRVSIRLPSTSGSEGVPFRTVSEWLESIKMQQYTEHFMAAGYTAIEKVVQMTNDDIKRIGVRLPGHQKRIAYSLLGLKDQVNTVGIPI

EPHA2ΔC ECD, sequence (P29317 24-537, stated change not applied): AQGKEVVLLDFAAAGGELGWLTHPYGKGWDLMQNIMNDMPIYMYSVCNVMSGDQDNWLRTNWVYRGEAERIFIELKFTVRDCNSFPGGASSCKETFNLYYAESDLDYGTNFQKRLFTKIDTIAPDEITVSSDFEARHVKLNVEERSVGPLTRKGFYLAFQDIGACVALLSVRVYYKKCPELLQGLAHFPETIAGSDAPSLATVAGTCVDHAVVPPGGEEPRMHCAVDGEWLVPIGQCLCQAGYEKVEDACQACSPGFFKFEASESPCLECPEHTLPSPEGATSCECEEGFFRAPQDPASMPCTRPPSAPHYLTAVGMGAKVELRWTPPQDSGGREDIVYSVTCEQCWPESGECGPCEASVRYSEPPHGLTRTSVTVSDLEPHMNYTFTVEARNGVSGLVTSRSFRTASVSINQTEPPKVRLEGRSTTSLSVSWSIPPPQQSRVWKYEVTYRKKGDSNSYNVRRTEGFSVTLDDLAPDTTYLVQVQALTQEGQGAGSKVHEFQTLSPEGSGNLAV

- Kd [1]: 582 nM
- Kd [2]: 150 nM
- Kd [3]: 125 nM
B1: Claudin-1 (protein)
chain: MANAGLQLLGFILAFLGWIGAIVSTALPQWRIYSYAGDNIVTAQAMYEGLWMSCVSQSTGQIQCKVFDSLLNLSSTLQATRALMVVGILLGVIAIFVATVGMKCMKCLEDDEVQKMRMAVIGGAIFLLAGLAILVATAWYGNRIVQEFYDPMTPVNARYEFGQALFTGWAAASLCLLGGALLCCSCPRKTTSYPTPRPYPKPAPSSGKDYV
modifications: Cy3-labeled CLDN1
